# Data: the DeepSol protein solubility set
# Experiment: soluble on expression in E. coli; label from the status in PepcDB or PDB records
row,Sequence,soluble on expression in E. coli
1,SNAMADLLLGVNIDHIATLRNARGTIYPDPVQAAFIAEQAGADGITVHLREDRRHITDRDVRILRQTIQTRMNLEMAVTDEMVDIACDIKPHFCCLVPEKRQEVTTEGGLDVAGQVDKMTLAVGRLADVGILVSLFIDADFRQIDAAVAAGAPYIEIHTGAYADASTVLERQAELMRIAKAATYAAGKGLKVNAGHGLTYHNVQPIAALPEMHELNIGHAIIGQAVMTGLAAAVTDMKVLMREARR,soluble
2,KFTLGQFFGAAKIAGKAFMFKADEPEDLIAKIVEMADAARKGGFLALEEMEINNSFMQKGIDLLVDGHDADVVRAALQKDIALTDERHTQGTGVFRAFGD,not soluble
3,AAGKDFVVKGKDGWAIIAGYHWFDEWGRDTFISLEGLLLVDKQYDIAKEIILKYLNLEKRGMLPNNFISYNGEPVYRGVDISLWAINAIYKTYIYSRDKNFIRKVVDKVLDIIDWYSKGNGVIYNVDNLIFHKGAPRTWMDASYDSRIVTPREGAAVEINALWYNALRVTEFLLNELGEKAEYLSEKAESVKKSFAEKFISQDGLYDYINWDNIPDKSIRPNQIFSISLPFPIIDDKSIASKILTLIESKLLRQYGLSSLSREDPNYKPVYKGDRRSRESLPQWTHMALVTRRLC,not soluble
4,MGSDKIHHHHHHMQTDKIFYSLFQAFTSIFFAIIGEADINPSTYEFVSVELKETAFRIDGVFKPVNETTEEPLYFVEVQFQLDPKFYRRFFAEIFLYLRQNPSVNFWRAVVIYPQRIIEPDDQQPYRSILDSSQIQRIYLDELGTANENSLQLAIMQLIIASEAIAIDQGRQLIIQARQELTDEANKKQIVELIETILLYKFTNLSREEVAAMLGIDDEFKKTRMYQSIKEDGLEEGRQEGRQQGIQEGRQEGRLQAKLEAIPRLLALGLSVEQIASALDLSIEQVQQVTGN,not soluble
5,MTQITKFHGVFPPVPTIVNAQGELDKVGMATLLDHLIASKVNGVLLLGSGGEFCHMTNALRLETAEFCVRHINRRIPVLLGISSTSTQEVIEYGQHADRLEVDAVLVLNPYYARLTDEYIYHHFKTVANNIKSPVILYNFPALTGQDLSVDLITRLAQDHPNIIGIKDTVDNISHIREIINNVRPVRPDFVIFSGYDEYMMDTLILGGNGGIPATANFAPQLTCGIYRAWCEKEYETMFGLQRRLSALSTIYSLDSPFFGIIKKAIQLSGVDISTHVMPPVLPANEEHISNLKQILQRAGL,not soluble
6,MSTKPAAAKTKPSCSEGGDLRVETENGETFITATQRADGTWRKARRVKGGYIPQDEQPKYQNKMQLEATNGRSSVPAGVNPRAMASGSSRKPVSAIKANVCITPQDHFQKKIDLTKKKIEDIEGMESRIASGELVPQPNQVKKIARKQEYLDEIEKLTLEMKKL,not soluble
7,MFDPPALKNSVISFLNKRRHSSGGYTLYEGLPDSKNTYYAIRSFEVLDHEPPRLEETLDWLEDVHRGGTFAAQGLFYRCSILRDYGRNFEIPEKFTEMLRTSYRKSSLEITFYMDSVLRMHGEYLDEIPEWVLSIQNEDGGFGAYGSDIINTRFALEILNGHGMKIPGDEVLQFTDSCFSDGAWNFTPISYPPYIETVHSGFRINEILRGKVSDVTRFIMKIRNPDGGFRRSVYMGISEPEYTYRAIYMLASIHGW,not soluble
8,THSQLDQLLTGLVDRVAEVDHAVVLSEDGLVVSKSTGFLRDDAERLAATASGLMSLSKGVSMDFRRGPVRQALIEMGKGYLILTAAGPGAHLVVLTRQGADVGVVAYQMNMLVKKIGEHLSAPPRG,soluble
9,MEKETKEKIEKTVIEILSESDMKEITEFKVRKLASEKLAIDLSEKSHKAFVRSVVEKFLDEERAREYENSQVNKEEEDGDKDCGKGNKEFDDDGDLIICRLSDKRRVTIQEFKGKSLVSIREYYKKDGKELPTSKGISLTDEQWSTFKKNMPAIENAVKKMESRV,soluble
10,MSLKLEAYRTLHCDAGWRRFSFLKLIAEDGTTGISEYNECYGSPGLTGVIEGVLEWIIGKNPFSHEKLSAELYARTRQAHGGIAQQAIAAVENALVDLKARSLGVPVYELLGGAVREELPLYWSHCGSYRLPRTAEMLGVPPITSLDDLVSLGKEVREKGFSALKTNIFLFEEQPHMHQPGFARSEGWPALNPERRIINSLKEQLAAFREGAGPELEILLDLNFNYRTEGFLTVCRALDDLGLGWFEMDLYDPAALARIRHALKTPVASCESLFGLRGFRPFFENQSMDVAIVDVPWNGIWQAMKIAGLAESFEVNVAPHNFYGHLSTLMSAHFCAAIPNFRIMEIDIDDVPWKDELVTKSPLIRDGILKIPEGIGWGTELNEEAIAAHPVKNTGDDRKYDRGMGEGHHHHHH,soluble
11,MSLNSMELLIIKERRIDYDGSAIRSHWAYRNFGILGDSLVVFRGKCNVKVEEMVDIEDLRLRKEIKGDDMVHYILELFWHPDILLASSLQKLLIARLVELLWNYGIEASRRGDDIYVNGRKLSISIATVSPVSIKIHIGLNVKTVGVPPGVDAIGLEELGIDPTEFMERSAKALVEEIEKVRKDSLKVRWVTEGHHHHHH,soluble
12,MKLIFILSIIFLSSLSVAQSPISCAFCMAGLAQINQQVISSPDMEAQMGIQASQGCDQIPVKQTRETCRGSLNTNFNIFYSNFTGQANNSPTQMCINMGMC,not soluble
13,ARTVVLITGCSSGIGLHLAVRLASDPSQSFKVYATLRDLKTQGRLWEAARALACPPGSLETLQLDVRDSKSVAAARERVTEGRVDVLVCNAGLGLLGPLEALGEDAVASVLDVNVVGTVRMLQAFLPDMKRRGSGRVLVTGSVGGLMGLPFNDVYCASKFALEGLCESLAVLLLPFGVHLSLIECGPVHTAFMEKVLGSPEEVLDRTDIHTFHRFYQYLAHSKQVFREAAQNPEEVAEVFLTALRAPKPTLRYFTTERFLPLLRMRLDDPSGSNYVTAMHREVFGDVPAKAEAGAEAGGGAGPGAEDEAGRSAVGDPELGDPPAAPQ,soluble
14,MAKKKKKKSFNVTRPTDPPVYPVTVPILGHIIQFGKSPLGFMQECKRQLKSGIFTINIVGKRVTIVGDPHEHSRFFLPRNEVLSPREVYSFMVPVFGEGVAYAAPYPRMREQLNFLAEELTIAKFQNFVPAIQHEVRKFMAANWDKDEGEINLLEDCSTMIINTACQCLFGEDLRKRLDARRFAQLLAKMESSLIPAAVFLPILLKLPLPQSARCHEARTELQKILSEIIIARKAAAVNKDSSTSDLLSGLLSAVYRDGTPMSLHEVCGMIVAAMFAGQHTSSITTTWSMLHLMHPANVKHLEALRKEIEEFPAQLNYNNVMDEMPFAERCARESIRRDPPLLMLMRKVMADVKVGSYVVPKGDIIACSPLLSHHDEEAFPEPRRWDPERDEKVEGAFIGFGAGVHKCIGQKFGLLQVKTILATAFRSYDFQLLRDEVPDPDYHTMVVGPTASQCRVKYIRRKAAAAHHHHHHHH,soluble
15,SLDIKEIVGDYNSFLDTIFELLIKGGFKENELKELPIDHICYRVSTNEFYNEKKEQLNQLGELLVETEIGGRMISTFKLNKPIQYKDKSIPLIELPAPKKNRINYDGLEHIEMVINEPFQSFVDNHPSPIDENLKFNWVLHALNKDINPDVECEFIDPRIKNEIRTISVKFHHQSLEEVVKYEIQLLKENEG,soluble
16,MLTVGILGGGQLGWMTILEGRKLGFKFHVLEDKENAPACRVADRCFRTGQISEFVDSCDIITYEFEHIKDEVLEKCESKLIPNPQALYVKKSRIREKLFLKKHGFPVPEFLVIKRDEIIDALKSFKLPVVIKAEKLGYDGKGQYRIKKLEDANQVVKNHDKEESFIIEEFVKFEAEISCIGVRDREGKTYFYPQPFNKHEEGILIYNYVPYAKLKEAEEITKRLMELLDIVGVFTVEFFLLKDGRVLINEFAPRVHNTGHWTLDGAYTSQFENLLRAITEMPLGSTELKLPSGMVNILGKSYEEIPLKEILSVEGAKLYWYGKEKKPRRKVGHVNVVGRSKEEVVEKVERVFTLLKGSREKLPAP,soluble
